B1: CLK3 (parent)
chain: FGEDYYGPSRSRHRRRSRERGPYR
B2: SCNN1D (parent)
chain: FLGHHSFSVRPGTEATISIREDEV
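Also: lentivirally expressed fusions sorted by FACS into six bins by GFP to DsRed ratio, PSI derived from sequencing read proportions per bin multiplied by bin number.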

Variants of B1 are the subject of the first data set. As to the kind of experiment: protein stability index of a GFP-peptide fusion (GPS, HEK-293T) (PSI 1-6); higher = more stable. Conditions: c terminus: a fixed tail appended.
In the case of FGEDYYGPSRSRHRRRSRERGPYL, the protein stability index was found to be 1.96.

Consider FGEDYYGPSRSRHRRRSRERGPYK, for which the protein stability index came to 2.62.

For FGEDYYGPSRSRHRRRSRERGPYT, the protein stability index came out at 1.81.

As to FGEDYYGPSRSRHRRRSRERGPYM, the protein stability index came to 2.85.

As for FGEDYYGPSRSRHRRRSRERGPYG, the protein stability index amounted to 3.26.

With FGEDYYGPSRSRHRRRSRERGPYS, the protein stability index amounted to 2.46.

FGEDYYGPSRSRHRRRSRERGPYN: the protein stability index is 2.46.

As to FGEDYYGPSRSRHRRRSRERGPYC, the protein stability index is 1.92.

FGEDYYGPSRSRHRRRSRERGPYH: the protein stability index is 2.67.

For FGEDYYGPSRSRHRRRSRERGPYD, the protein stability index worked out at 1.9.

Take FGEDYYGPSRSRHRRRSRERGPYA: the protein stability index was determined as 2.02.

Regarding FGEDYYGPSRSRHRRRSRERGPYI, the protein stability index came out at 2.68.

On to FGEDYYGPSRSRHRRRSRERGPYP, for which the protein stability index came to 3.48.

Turning to FGEDYYGPSRSRHRRRSRERGPYV, the protein stability index worked out at 2.46.

As to FGEDYYGPSRSRHRRRSRERGPYY, the protein stability index was 2.35.

Take FGEDYYGPSRSRHRRRSRERGPYW: the protein stability index amounted to 2.18.

Consider FGEDYYGPSRSRHRRRSRERGPYF, for which the protein stability index came out at 2.8.

As for FGEDYYGPSRSRHRRRSRERGPYQ, the protein stability index came to 2.14.

On to FGEDYYGPSRSRHRRRSRERGPYE, for which the protein stability index worked out at 2.32.

Variants of B2 are the subject of a further data set. The description is as above. As to conditions: c terminus: a fixed tail appended.
Consider FLGHHSWSVRPGTEATISIREDEV, for which the protein stability index was 3.24.

Take FLGHHSCSVRPGTEATISIREDEV: the protein stability index was 3.6.

As to FLGHHSESVRPGTEATISIREDEV, the protein stability index amounted to 4.81.

In the case of FLGHHSQSVRPGTEATISIREDEV, the protein stability index turned out to be 3.98.

For the variant FLGHHSVSVRPGTEATISIREDEV, the protein stability index worked out at 3.88.

With FLGHHSPSVRPGTEATISIREDEV, the protein stability index was 4.44.

In the case of CLGHHSFSVRPGTEATISIREDEV, the protein stability index is 3.57.

On to DLGHHSFSVRPGTEATISIREDEV, for which the protein stability index worked out at 4.78.

With ALGHHSFSVRPGTEATISIREDEV, the protein stability index was 3.92.

As to LLGHHSFSVRPGTEATISIREDEV, the protein stability index is 3.99.

Consider HLGHHSFSVRPGTEATISIREDEV, for which the protein stability index worked out at 4.49.

For the variant RLGHHSFSVRPGTEATISIREDEV, the protein stability index stood at 4.42.

Consider ILGHHSFSVRPGTEATISIREDEV, for which the protein stability index was 4.02.

Consider KLGHHSFSVRPGTEATISIREDEV, for which the protein stability index amounted to 4.3.

Consider VLGHHSFSVRPGTEATISIREDEV, for which the protein stability index worked out at 4.15.

Take SLGHHSFSVRPGTEATISIREDEV: the protein stability index worked out at 4.38.

Take FLGHHSFSVRPGTEAEISIREDEV: the protein stability index stood at 1.62.

Take FLGHHSFSVRPGTEALISIREDEV: the protein stability index was found to be 1.49.

As to FLGHHSFSVRPGTEAKISIREDEV, the protein stability index stood at 1.75.

For the variant FLGHHSFSVRPGTEAPISIREDEV, the protein stability index amounted to 1.85.

Take FLGHHSFSVRPGTEADISIREDEV: the protein stability index came to 3.29.

For FLHHHSFSVRPGTEATISIREDEV, the protein stability index worked out at 2.71.

For the variant FLAHHSFSVRPGTEATISIREDEV, the protein stability index worked out at 1.95.

As to FLLHHSFSVRPGTEATISIREDEV, the protein stability index came out at 2.28.

In the case of FLNHHSFSVRPGTEATISIREDEV, the protein stability index turned out to be 2.26.

For the variant FLSHHSFSVRPGTEATISIREDEV, the protein stability index was found to be 2.42.

As to FLMHHSFSVRPGTEATISIREDEV, the protein stability index was found to be 1.42.

Turning to FLGHHSFSVRPGTEATKSIREDEV, the protein stability index was 2.32.

Consider FLGHHSFSVRPGTEATASIREDEV, for which the protein stability index is 2.44.

Regarding FLGHHSFSVRPGTEATFSIREDEV, the protein stability index was found to be 1.36.

With FLGHHSFSVRPGTEATESIREDEV, the protein stability index is 2.1.

Regarding FLGHHSFSVRPGTEATHSIREDEV, the protein stability index amounted to 2.23.

Turning to FLGHHSFSVRPGTEATSSIREDEV, the protein stability index was determined as 1.66.

Consider FLGHHSFSVRPGTEATRSIREDEV, for which the protein stability index is 2.07.

Regarding FLGHHSFSVRPGTEATISIREDET, the protein stability index worked out at 1.66.

For the variant FLGHHSFSVRPGTEATISIREDEN, the protein stability index was determined as 1.99.

Regarding FLGHHSFSVRPGTEATISIREDEP, the protein stability index is 1.76.

Consider FLGHHSFSVRPGTEATISIREDEK, for which the protein stability index stood at 1.93.

For the variant FLGHHSFSVRPGTEATISIREDEI, the protein stability index is 1.8.

In the case of FLGHHSFSVRPGTEATISIREDEF, the protein stability index came to 1.76.

In the case of FLGHHSFSVRPGTEATISIREDEG, the protein stability index was 1.9.

For FLGHHSFSVRPGTEATISIREDEE, the protein stability index was 2.27.

With FLGHHSFSVRPGTEATISIREDEW, the protein stability index stood at 1.44.

As to FLGHHSFSVRPGTEATISIREDED, the protein stability index came to 2.15.

Turning to FLGHHSFSVRPGTEATISIREDEH, the protein stability index came to 1.76.

For FLGTHSFSVRPGTEATISIREDEV, the protein stability index is 2.16.

For FLGAHSFSVRPGTEATISIREDEV, the protein stability index turned out to be 2.74.

Take FLGNHSFSVRPGTEATISIREDEV: the protein stability index was found to be 2.29.

FLGMHSFSVRPGTEATISIREDEV: the protein stability index came to 1.58.

Regarding FLGHHSFSRRPGTEATISIREDEV, the protein stability index was 3.8.

FLGHHSFSKRPGTEATISIREDEV: the protein stability index stood at 2.83.

As for FLGHHSFSFRPGTEATISIREDEV, the protein stability index was 2.33.

Consider FLGHHSFSPRPGTEATISIREDEV, for which the protein stability index was determined as 2.18.

On to FLGHHSFSLRPGTEATISIREDEV, for which the protein stability index came to 2.15.

Take FLGHHSFSSRPGTEATISIREDEV: the protein stability index came to 2.12.

Regarding FLGHHSFSYRPGTEATISIREDEV, the protein stability index is 2.84.

For FAGHHSFSVRPGTEATISIREDEV, the protein stability index is 1.66.

FVGHHSFSVRPGTEATISIREDEV: the protein stability index was 2.64.

For the variant FYGHHSFSVRPGTEATISIREDEV, the protein stability index is 3.44.

Take FQGHHSFSVRPGTEATISIREDEV: the protein stability index worked out at 1.95.

Take FMGHHSFSVRPGTEATISIREDEV: the protein stability index was determined as 1.95.

With FSGHHSFSVRPGTEATISIREDEV, the protein stability index stood at 1.76.

FNGHHSFSVRPGTEATISIREDEV: the protein stability index came to 3.15.

With FCGHHSFSVRPGTEATISIREDEV, the protein stability index is 2.18.

For the variant FWGHHSFSVRPGTEATISIREDEV, the protein stability index worked out at 2.4.

For the variant FLGHHSFSVRPGTEATISCREDEV, the protein stability index was 1.58.

As to FLGHHSFSVRPGTEATISSREDEV, the protein stability index came to 2.13.

As for FLGHHSFSVRPGTEATISHREDEV, the protein stability index turned out to be 1.9.

On to FLGHHSFSVRPGTEATISYREDEV, for which the protein stability index was determined as 1.52.

In the case of FLGHHSFSVRPGTEATISGREDEV, the protein stability index came to 2.6.

Consider FLGHHSFSVRPGTEATISDREDEV, for which the protein stability index stood at 1.92.

In the case of FLGHHSFSVRPGTEATISIREDCV, the protein stability index was determined as 1.88.

With FLGHHSFSVRPGTEATISIREDHV, the protein stability index is 2.32.

Consider FLGHHSFSVRPGTEATISIREDVV, for which the protein stability index turned out to be 2.05.

Regarding FLGHHSFSVVPGTEATISIREDEV, the protein stability index came to 2.41.
